Results reported in US20210292396A1.

Assays:
Assay in all cases: cell-based or functional assay
[1] = molecular target: Env of HIV isolate KER2008.12 (clade A) (HIV)
[2] = molecular target: Env of HIV isolate A07412M1.vrc12 (clade D) (HIV)
[3] = molecular target: Env of HIV isolate ZM109.4 (clade C) (HIV)
[4] = molecular target: Env of HIV isolate CNE7 (clade BC) (HIV)
[5] = molecular target: Env of HIV isolate BaL.26 (clade B) (HIV)
[6] = molecular target: Env of HIV isolate 191821.E6.1 (clade D) (HIV)
[7] = molecular target: Env of HIV isolate BJOX028000.10.3 (clade AE) (HIV)
[8] = molecular target: Env of HIV isolate BJOX025000.01.1 (clade AE) (HIV)
[9] = molecular target: Env of HIV isolate JRFL.JB (clade B) (HIV)
[10] = molecular target: Env of HIV isolate 3468.v1.c12 (clade AD) (HIV)
[11] = molecular target: Env of HIV isolate 620345.c1 (clade AE) (HIV)
[12] = molecular target: HIV Env of isolate CAP210.E8 (HIV)
[13] = molecular target: HIV Env of isolate 25710-2.43 (HIV)
[14] = molecular target: Env of HIV isolate 89.6.DG (clade B) (HIV)
[15] = molecular target: 208-member cross-clade virus panel
[16] = molecular target: HIV Env of isolate CNE31 (HIV)
[17] = molecular target: HIV Env of isolate ZM215.8 (HIV)
[18] = molecular target: Env of HIV isolate 0330.v4.c3 (clade A) (HIV)
[19] = molecular target: Env of HIV isolate 6644.v2.c33 (clade C) (HIV)
[20] = molecular target: Env of HIV isolate BG505.W6M.C2 (clade A) (HIV)
[21] = molecular target: HIV Env of isolate CAP256.206.C9 (HIV)
[22] = molecular target: Env of HIV isolate 242-14 (clade AG) (HIV)
[23] = molecular target: Env of HIV isolate 7165.18 (clade B) (HIV)
[24] = molecular target: HIV Env of isolate ZM197.7 (HIV)
[25] = molecular target: Env of HIV isolate 00836-2.5 (clade C) (HIV)
[26] = molecular target: Env of HIV isolate CH117.4 (clade BC) (HIV)
[27] = molecular target: Env of HIV isolate T280-5 (clade AG) (HIV)
[28] = molecular target: HIV Env of isolate ZM176.66 (HIV)
[29] = molecular target: Env of HIV isolate 6095.v1.c10 (clade ACD) (HIV)
[30] = molecular target: Env of HIV isolate 3873.v1.c24 (clade C) (HIV)
[31] = molecular target: Env of HIV isolate UG037.8 (clade A) (HIV)
[32] = molecular target: Env of HIV isolate TH976.17 (clade AE) (HIV)
[33] = molecular target: Env of HIV isolate ADA.DG (clade B) (HIV)
[34] = molecular target: Env of HIV isolate CNE58 (clade C in Table 7) (HIV)
[35] = molecular target: HIV Env of isolate 6644.v2.c33 (HIV)
[36] = molecular target: Env of HIV isolate DU422.01 (clade C) (HIV)
[37] = molecular target: Env of HIV isolate C4118.09 (clade AE) (HIV)
[38] = molecular target: Env of HIV isolate CNE20 (clade BC) (HIV)
[39] = molecular target: HIV Env of isolate UG021.16 (HIV)
[40] = molecular target: Env of HIV isolate CNE8 (clade AE) (HIV)
[41] = molecular target: Env of HIV isolate DU156.12 (clade C) (HIV)
[42] = molecular target: HIV Env of isolate 0921.v2.c14 (HIV)
[43] = molecular target: HIV Env of isolate 3637.v5.c3 (HIV)

B1: ePGT121.18.17 (ePGT121.18.H17 VH and ePGT121.17.L1 VL) (antibody, V domains shown)
VH: QMQLQESGPGLVKPGETLSLTCSVSGASISSSYWSWLRETPGKGLEWIGYTHHSGDTNYAPSLKSRVTIGLDPSKNQVSLSLTSVTAADTAVYYCARTLHGRRIYGVVAFNEYYTYFYWPTWGKGTQVTVSS
VL: SDISVAPGETVRITCGGESIGSRAVQWYQHRPGQAPRLIIYNNQDRPPGIPERFSGSPDIDFGTTATLTISNVEAGDEATYYCHIWDSRRPTNWELGPGTTLTVL
- IC50, pseudovirus neutralization [1]: 0.01 µg/mL
- IC50, pseudovirus neutralization [2]: 0.004 µg/mL
- IC50, pseudovirus neutralization [3]: 8.44 µg/mL
- IC50, pseudovirus neutralization [4]: 0.007 µg/mL
- IC50, pseudovirus neutralization [5]: 0.004 µg/mL
- IC50, pseudovirus neutralization [6]: 0.104 µg/mL
- IC50, pseudovirus neutralization [7]: 0.338 µg/mL
- IC50, pseudovirus neutralization [8]: > 50 µg/mL
- IC50, pseudovirus neutralization [9]: 0.011 µg/mL
- IC50, pseudovirus neutralization [10]: 0.004 µg/mL
- IC50, pseudovirus neutralization [11]: > 50 µg/mL
- IC80, pseudovirus neutralization [12]: 0.645 µg/mL
- IC80, pseudovirus neutralization [13]: 0.026 µg/mL
- IC50, pseudovirus neutralization [14]: 0.004 µg/mL
- % vs Neutralized, IC50 < 0.01 ug/ml [15]: 40%
- % vs Neutralized, IC50 < 0.1 ug/ml [15]: 61%
- % vs Neutralized, IC50 < 1.0 ug/ml [15]: 69%
- % vs Neutralized, IC50 < 10 ug/ml [15]: 74%
- % vs Neutralized, IC50 < 50 ug/ml [15]: 76%
- % vs Neutralized, IC80 < 0.01 ug/ml [15]: 14.4%
- % vs Neutralized, IC80 < 0.1 ug/ml [15]: 53.4%
- % vs Neutralized, IC80 < 1.0 ug/ml [15]: 63.5%
- % vs Neutralized, IC80 < 10 ug/ml [15]: 67.8%
- % vs Neutralized, IC80 < 50 ug/ml [15]: 70.7%
- Geometric Mean (IC50) [15]: 0.0202 µg/mL
- Geometric Mean IC80 [15]: 0.0443 µg/mL
- Median IC50 [15]: 0.009 µg/mL
- Median IC80 [15]: 0.02 µg/mL
- Total VS Neutralized, IC50 < 0.01 ug/ml (viruses of 208) [15]: 83
- Total VS Neutralized, IC50 < 0.1 ug/ml (viruses of 208) [15]: 126
- Total VS Neutralized, IC50 < 1.0 ug/ml (viruses of 208) [15]: 143
- Total VS Neutralized, IC50 < 10 ug/ml (viruses of 208) [15]: 154
- Total VS Neutralized, IC50 < 50 ug/ml (viruses of 208) [15]: 158
- Total VS Neutralized, IC80 < 0.01 ug/ml (viruses of 208) [15]: 30
- Total VS Neutralized, IC80 < 0.1 ug/ml (viruses of 208) [15]: 111
- Total VS Neutralized, IC80 < 1.0 ug/ml (viruses of 208) [15]: 132
- Total VS Neutralized, IC80 < 10 ug/ml (viruses of 208) [15]: 141
- Total VS Neutralized, IC80 < 50 ug/ml (viruses of 208) [15]: 147
- IC80, pseudovirus neutralization [16]: 0.25 µg/mL
- IC80, pseudovirus neutralization [17]: 0.048 µg/mL
- IC50, pseudovirus neutralization [18]: 0.012 µg/mL
- IC50, pseudovirus neutralization [19]: 0.005 µg/mL
- IC50, pseudovirus neutralization [20]: 0.047 µg/mL
- IC80, pseudovirus neutralization [21]: 0.009 µg/mL
- IC50, pseudovirus neutralization [22]: > 50 µg/mL
- IC50, pseudovirus neutralization [23]: 0.006 µg/mL
- IC80, pseudovirus neutralization [24]: > 50 µg/mL
- IC50, pseudovirus neutralization [25]: 48.9 µg/mL
- IC50, pseudovirus neutralization [26]: > 50 µg/mL
- IC50, pseudovirus neutralization [27]: 0.006 µg/mL
- IC80, pseudovirus neutralization [28]: 0.454 µg/mL
- IC50, pseudovirus neutralization [29]: 0.045 µg/mL
- IC50, pseudovirus neutralization [30]: 0.011 µg/mL
- IC50, pseudovirus neutralization [31]: 0.009 µg/mL
- IC50, pseudovirus neutralization [32]: > 50 µg/mL
- IC50, pseudovirus neutralization [33]: 0.005 µg/mL
- IC50, pseudovirus neutralization [34]: 0.053 µg/mL
- IC80, pseudovirus neutralization [35]: 0.015 µg/mL
- IC50, pseudovirus neutralization [36]: 0.013 µg/mL
- IC50, pseudovirus neutralization [37]: > 50 µg/mL
- IC50, pseudovirus neutralization [38]: 0.002 µg/mL
- IC80, pseudovirus neutralization [39]: 0.078 µg/mL
- IC50, pseudovirus neutralization [40]: > 50 µg/mL
- IC50, pseudovirus neutralization [41]: 0.003 µg/mL
- IC80, pseudovirus neutralization [42]: 3.48 µg/mL
- IC80, pseudovirus neutralization [43]: > 50 µg/mL
